± gives the standard error. Variants at the floor of the assay were thinned out.
B1: glmS ribozyme (parent)
chain: AUAAAAGCGCCAGAACUACAGAAAUGUAGUUGACGAGGAGGAGGUUUAUCGAAUUUUCGGCGGAUGCCUCCAAA

Key:
Conditions in all cases: with glucosamine-6-phosphate
[1] = variants of: B1; assay: self-cleavage kobs at 160 uM GlcN6P; higher = faster cleavage; RNA array
How it was run: (§1)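 The measurements used barcoded ribozyme variants on sequenced MiSeq chips, transcribed in situ by E. coli RNA polymerase and tracked at 37 °C with a hybridised Cy3 probe. Glucosamine-6-phosphate, 40 μM to 10 mM in HEPES/KCl/Mg(OAc)2 buffer, was flowed in while tiles were imaged over ~14 h. Baseline-normalised signals, also normalised to non-cleaving reference variants, gave per-tile medians that were fit to one- or two-exponential decays for kobs. kcat and KM resulted from weighted Michaelis–Menten fits across concentrations.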

[2] = variants of: B1; assay: self-cleavage kobs at 640 uM GlcN6P; higher = faster cleavage; RNA array
How it was run: as §1

[3] = variants of: B1; assay: self-cleavage kobs at 2500 uM GlcN6P; higher = faster cleavage; RNA array
How it was run: as §1

[4] = variants of: B1; assay: self-cleavage kobs at 10000 uM GlcN6P; higher = faster cleavage; RNA array
How it was run: as §1

Variant	self-cleavage kobs at 160 uM GlcN6P [1]	self-cleavage kobs at 640 uM GlcN6P [2]	self-cleavage kobs at 2500 uM GlcN6P [3]	self-cleavage kobs at 10000 uM GlcN6P [4]
G43C U56A	< 1e-05 s⁻¹	< 1e-05 s⁻¹	< 1e-05 s⁻¹	< 1e-05 s⁻¹
A6U G35U A42C	< 1e-05 s⁻¹	< 1e-05 s⁻¹		
U49G G51U	< 1e-05 s⁻¹	< 1e-05 s⁻¹	< 1e-05 s⁻¹	< 1e-05 s⁻¹
G9C C11G C61G G63U	< 1e-05 s⁻¹		< 1e-05 s⁻¹	
C11U A15G C34U U57C C71A	< 1e-05 s⁻¹	< 1e-05 s⁻¹	< 1e-05 s⁻¹	
G7U A36U C71A	< 1e-05 s⁻¹			
G40A C61U C68G C70G C71G	< 1e-05 s⁻¹	< 1e-05 s⁻¹		
A12U A15G A36U	< 1e-05 s⁻¹			
G43U G59U	< 1e-05 s⁻¹	< 1e-05 s⁻¹	< 1e-05 s⁻¹	
C16U U31A G43U A52U	< 1e-05 s⁻¹	< 1e-05 s⁻¹	< 1e-05 s⁻¹	
A33G A48C A52G	< 1e-05 s⁻¹	< 1e-05 s⁻¹		
C34U G37A C50A A52G C70G	0.000507 ± 0.00015 s⁻¹	0.000453 ± 0.00013 s⁻¹	0.000268 ± 9.2e-05 s⁻¹	
A33U C68G C71A	< 1e-05 s⁻¹	< 1e-05 s⁻¹		
A6G G7A G43C	< 1e-05 s⁻¹	< 1e-05 s⁻¹	< 1e-05 s⁻¹	< 1e-05 s⁻¹
G35C U46A U56A C61U C68U	< 1e-05 s⁻¹		< 1e-05 s⁻¹	
G43C U45A C67U	0.000282 ± 9.2e-05 s⁻¹	0.000977 ± 0.00034 s⁻¹	0.00269 ± 0.00071 s⁻¹	
A39G G51U G59U	< 1e-05 s⁻¹	< 1e-05 s⁻¹		< 1e-05 s⁻¹
G13A A64C	< 1e-05 s⁻¹	< 1e-05 s⁻¹	< 1e-05 s⁻¹	< 1e-05 s⁻¹
C8U U49C	< 1e-05 s⁻¹	< 1e-05 s⁻¹	< 1e-05 s⁻¹	< 1e-05 s⁻¹
C16U G29C C67A	0.00011 ± 2.1e-05 s⁻¹	0.000258 ± 4.5e-05 s⁻¹	0.00106 ± 0.00017 s⁻¹	
G40U G60A U65G	< 1e-05 s⁻¹	< 1e-05 s⁻¹	< 1e-05 s⁻¹	
G32U C34G G43A	< 1e-05 s⁻¹	< 1e-05 s⁻¹	< 1e-05 s⁻¹	
C8A C10U U31A	< 1e-05 s⁻¹			< 1e-05 s⁻¹
G35A U55C	< 1e-05 s⁻¹	< 1e-05 s⁻¹	< 1e-05 s⁻¹	< 1e-05 s⁻¹
G35C U55A	< 1e-05 s⁻¹	< 1e-05 s⁻¹	< 1e-05 s⁻¹	

Variant	self-cleavage kobs at 160 uM GlcN6P [1]	self-cleavage kobs at 640 uM GlcN6P [2]	self-cleavage kobs at 2500 uM GlcN6P [3]	self-cleavage kobs at 10000 uM GlcN6P [4]
U31G A39C U45A	0.000229 ± 6.4e-05 s⁻¹	0.000642 ± 0.0001 s⁻¹	0.00161 ± 0.00025 s⁻¹	
G66U U69C	0.000111 ± 2e-05 s⁻¹	0.000207 ± 6.9e-05 s⁻¹	0.000653 ± 0.00016 s⁻¹	
C10A C50G U65G	0.000143 ± 2.6e-05 s⁻¹	0.000121 ± 4.2e-05 s⁻¹	4.21e-05 ± 1.9e-05 s⁻¹	
G37A C50G U69C	5.92e-05 ± 1.9e-05 s⁻¹	7.07e-05 ± 2.7e-05 s⁻¹		
C8A G35C G62U	< 1e-05 s⁻¹	< 1e-05 s⁻¹	< 1e-05 s⁻¹	
G29C G43C C70G	< 1e-05 s⁻¹	< 1e-05 s⁻¹		
G40C A64U	< 1e-05 s⁻¹	< 1e-05 s⁻¹		
G41C G43A G44C C68U C71U	< 1e-05 s⁻¹		< 1e-05 s⁻¹	
G29U G43A C70A	< 1e-05 s⁻¹			
A14G C58G U69A	3.98e-05 ± 2e-05 s⁻¹	8.05e-05 ± 3.6e-05 s⁻¹	3.74e-05 ± 1.9e-05 s⁻¹	
C10U C50G C68U C70G	0.000109 ± 4e-05 s⁻¹			
C8G C70U	< 1e-05 s⁻¹	< 1e-05 s⁻¹	< 1e-05 s⁻¹	< 1e-05 s⁻¹
A15C U65A	3.48e-05 ± 1.4e-05 s⁻¹	0.000177 ± 2.9e-05 s⁻¹	0.000234 ± 5.7e-05 s⁻¹	0.000807 ± 0.00016 s⁻¹
G9U G40C G51A	< 1e-05 s⁻¹	< 1e-05 s⁻¹	< 1e-05 s⁻¹	
G35A G63A	< 1e-05 s⁻¹			< 1e-05 s⁻¹
A12G C34A C50A G60C	< 1e-05 s⁻¹		< 1e-05 s⁻¹	
G32A A42U	< 1e-05 s⁻¹	< 1e-05 s⁻¹		
A33U C58U	< 1e-05 s⁻¹	< 1e-05 s⁻¹		
G40C U56A	0.000154 ± 3.3e-05 s⁻¹	0.000308 ± 6.3e-05 s⁻¹	0.00115 ± 0.00026 s⁻¹	
C11U U56A G66A	4.3e-05 ± 1.4e-05 s⁻¹	8.42e-05 ± 1.7e-05 s⁻¹	0.000197 ± 4.1e-05 s⁻¹	
U30G A39U G60U	< 1e-05 s⁻¹		< 1e-05 s⁻¹	
A12C G51U C58G C61A	< 1e-05 s⁻¹			
C50G C61U C71U	0.000138 ± 4.3e-05 s⁻¹	0.000232 ± 7.4e-05 s⁻¹	9.98e-05 ± 2.4e-05 s⁻¹	0.000211 ± 5.4e-05 s⁻¹
G13U U31A C34A A48C G62U	< 1e-05 s⁻¹			
U47C G59A	< 1e-05 s⁻¹			

Variant	self-cleavage kobs at 160 uM GlcN6P [1]	self-cleavage kobs at 640 uM GlcN6P [2]	self-cleavage kobs at 2500 uM GlcN6P [3]	self-cleavage kobs at 10000 uM GlcN6P [4]
G7C G29U A33G	< 1e-05 s⁻¹	< 1e-05 s⁻¹		
G40U A64U U65G C71G	< 1e-05 s⁻¹	< 1e-05 s⁻¹		
A39C A48G	< 1e-05 s⁻¹			3.36e-05 ± 1.2e-05 s⁻¹
G13U G29A A52C	< 1e-05 s⁻¹	< 1e-05 s⁻¹	< 1e-05 s⁻¹	
C11G A33U C34A G41A U54A	< 1e-05 s⁻¹	< 1e-05 s⁻¹	< 1e-05 s⁻¹	
G29A A33G	< 1e-05 s⁻¹	< 1e-05 s⁻¹	< 1e-05 s⁻¹	< 1e-05 s⁻¹
C16G G51U G60C	< 1e-05 s⁻¹	< 1e-05 s⁻¹	< 1e-05 s⁻¹	
A12U G41C A52U G59A G60U	< 1e-05 s⁻¹		< 1e-05 s⁻¹	
G35C C50U A53C	< 1e-05 s⁻¹	< 1e-05 s⁻¹	< 1e-05 s⁻¹	
A12U G29A A53G G62A	< 1e-05 s⁻¹	< 1e-05 s⁻¹	< 1e-05 s⁻¹	
A14C G32U A52C	< 1e-05 s⁻¹	< 1e-05 s⁻¹	< 1e-05 s⁻¹	
A14U G35C U49G	< 1e-05 s⁻¹			
C10G G63C U65G	< 1e-05 s⁻¹		< 1e-05 s⁻¹	
A6U G43U U57A	< 1e-05 s⁻¹	< 1e-05 s⁻¹	< 1e-05 s⁻¹	
C50G G60U	4.83e-05 ± 1.6e-05 s⁻¹		4.39e-05 ± 1.9e-05 s⁻¹	
G9A G32A G43C U56C C68U	< 1e-05 s⁻¹	< 1e-05 s⁻¹	< 1e-05 s⁻¹	
A42G G51C G60U	< 1e-05 s⁻¹			
U45G U47G	0.000328 ± 9.1e-05 s⁻¹	0.00314 ± 0.00086 s⁻¹	0.00347 ± 0.00055 s⁻¹	
C16G A33C C58G G66A	< 1e-05 s⁻¹		< 1e-05 s⁻¹	
C34G C50G	5.61e-05 ± 2.4e-05 s⁻¹	0.00014 ± 5.7e-05 s⁻¹	9.6e-05 ± 3.6e-05 s⁻¹	
C8A A33U G51A	< 1e-05 s⁻¹	< 1e-05 s⁻¹		
C16G A36U	< 1e-05 s⁻¹	< 1e-05 s⁻¹	< 1e-05 s⁻¹	
G29U G32U A64U	< 1e-05 s⁻¹			
G13U G21U G37C	< 1e-05 s⁻¹			
G7C C10G	< 1e-05 s⁻¹	< 1e-05 s⁻¹	< 1e-05 s⁻¹	

Variant	self-cleavage kobs at 160 uM GlcN6P [1]	self-cleavage kobs at 640 uM GlcN6P [2]	self-cleavage kobs at 2500 uM GlcN6P [3]	self-cleavage kobs at 10000 uM GlcN6P [4]
A15C C50G G66U	5.42e-05 ± 1.8e-05 s⁻¹			
U30A G44C	< 1e-05 s⁻¹			
G13C A36U	< 1e-05 s⁻¹	< 1e-05 s⁻¹	< 1e-05 s⁻¹	< 1e-05 s⁻¹
G40A A42U U49C C58G A64G C70G	< 1e-05 s⁻¹	< 1e-05 s⁻¹	< 1e-05 s⁻¹	
A14G U30A G32A C68A	< 1e-05 s⁻¹			
G44C C61G	< 1e-05 s⁻¹	< 1e-05 s⁻¹		< 1e-05 s⁻¹
U65C G66C	< 1e-05 s⁻¹	< 1e-05 s⁻¹		< 1e-05 s⁻¹
A6G A53C G63A A64G	< 1e-05 s⁻¹	< 1e-05 s⁻¹		
C10G A12U U31A A33U G63A	< 1e-05 s⁻¹			
C8U A14C	< 1e-05 s⁻¹	< 1e-05 s⁻¹	< 1e-05 s⁻¹	< 1e-05 s⁻¹
C50G A52U U56G A64U	< 1e-05 s⁻¹	< 1e-05 s⁻¹	< 1e-05 s⁻¹	
G35A C58U	< 1e-05 s⁻¹		< 1e-05 s⁻¹	< 1e-05 s⁻¹
G7U G43U C68U	< 1e-05 s⁻¹	< 1e-05 s⁻¹	< 1e-05 s⁻¹	< 1e-05 s⁻¹
G43A G44A U47A	< 1e-05 s⁻¹			
G29U A33U U54G	< 1e-05 s⁻¹			
G29A G63C C70G	7.77e-05 ± 3e-05 s⁻¹	0.000155 ± 4.1e-05 s⁻¹	7.4e-05 ± 2.1e-05 s⁻¹	
A33U A64G	< 1e-05 s⁻¹			6.18e-05 ± 1.1e-05 s⁻¹
U45A A53U U65A	0.000624 ± 0.00014 s⁻¹	0.0024 ± 0.00081 s⁻¹	0.00652 ± 0.0016 s⁻¹	
G43A U49C G66A C70G	< 1e-05 s⁻¹	< 1e-05 s⁻¹	< 1e-05 s⁻¹	
C16U A33G C34A A39G	< 1e-05 s⁻¹	< 1e-05 s⁻¹		
G43U C61G C71U	< 1e-05 s⁻¹			
G40C G60U C67G	< 1e-05 s⁻¹	< 1e-05 s⁻¹	< 1e-05 s⁻¹	
C16U A53G U54C	0.000683 ± 0.00013 s⁻¹	0.00193 ± 0.00028 s⁻¹	0.00421 ± 0.00075 s⁻¹	
C16A G29C C58U	< 1e-05 s⁻¹			
G9U C16G G32U G38A A42G	< 1e-05 s⁻¹			

— the supplement of paper PMC7125110
